In paper PMC7226732 (2020):

B1: V5-Cx40 (wild type) [rat] / GFP-LC3B (expressed in HEK293A cells) [not stated (human cDNA cloned; a plasmid from Dr. Yoshimori also named)] (parent complex)
chain 1: MGDWSFLGEFLEEVHKHSTVIGKVWLTVLFIFRMLVLGTAAESSWGDEQADFRCDTIQPGCQNVCYDQAFPISHIRYWVLQIIFVSTPSLVYMGHAMHTVRMQEKQKLREAEKAKEAGGTGTYEYLAEKAELSCWKEVNGKIVLQGTLLNTYVCTILIRTAMEVAFMVGQYLLYGIFLDTLHVCRRSPCPHPVNCYVSRPTEKNVFIVFMMAVAGLSLFLSLAELYHLGWKKIRQRLAKSRQGDKHQLLGPSTSLVQGLTPPPDFNQCLKNSPDEKFFSDFSNNMGSRKNPDPLATEEVPNQEQIPEEGFIHTQYGQKPEQPSGASAGHRFPQGYHSDKRRLSKASSKARSDDLSV
chain 2: not shown

Variants of: B1
Test: co-immunoprecipitation (IP: V5) and Western blot quantification; HEK293A cell lysates; read off a plot

Row | Variant | ratio to parent
1 | chain 1 W4A, chain 1 L7A | ~1.9
